# From patent publication US11819552B2, “Antibody-drug conjugates targeting uPARAP” (RIGSHOSPITALET, priority 2016, dated 2023)
# Entries after “also recorded” stand apart in the source; their conditions may differ.
# T1: uPARAP (Homo sapiens, UniProt Q9UBG0)
# T1 sequence (Q9UBG0 31-1479): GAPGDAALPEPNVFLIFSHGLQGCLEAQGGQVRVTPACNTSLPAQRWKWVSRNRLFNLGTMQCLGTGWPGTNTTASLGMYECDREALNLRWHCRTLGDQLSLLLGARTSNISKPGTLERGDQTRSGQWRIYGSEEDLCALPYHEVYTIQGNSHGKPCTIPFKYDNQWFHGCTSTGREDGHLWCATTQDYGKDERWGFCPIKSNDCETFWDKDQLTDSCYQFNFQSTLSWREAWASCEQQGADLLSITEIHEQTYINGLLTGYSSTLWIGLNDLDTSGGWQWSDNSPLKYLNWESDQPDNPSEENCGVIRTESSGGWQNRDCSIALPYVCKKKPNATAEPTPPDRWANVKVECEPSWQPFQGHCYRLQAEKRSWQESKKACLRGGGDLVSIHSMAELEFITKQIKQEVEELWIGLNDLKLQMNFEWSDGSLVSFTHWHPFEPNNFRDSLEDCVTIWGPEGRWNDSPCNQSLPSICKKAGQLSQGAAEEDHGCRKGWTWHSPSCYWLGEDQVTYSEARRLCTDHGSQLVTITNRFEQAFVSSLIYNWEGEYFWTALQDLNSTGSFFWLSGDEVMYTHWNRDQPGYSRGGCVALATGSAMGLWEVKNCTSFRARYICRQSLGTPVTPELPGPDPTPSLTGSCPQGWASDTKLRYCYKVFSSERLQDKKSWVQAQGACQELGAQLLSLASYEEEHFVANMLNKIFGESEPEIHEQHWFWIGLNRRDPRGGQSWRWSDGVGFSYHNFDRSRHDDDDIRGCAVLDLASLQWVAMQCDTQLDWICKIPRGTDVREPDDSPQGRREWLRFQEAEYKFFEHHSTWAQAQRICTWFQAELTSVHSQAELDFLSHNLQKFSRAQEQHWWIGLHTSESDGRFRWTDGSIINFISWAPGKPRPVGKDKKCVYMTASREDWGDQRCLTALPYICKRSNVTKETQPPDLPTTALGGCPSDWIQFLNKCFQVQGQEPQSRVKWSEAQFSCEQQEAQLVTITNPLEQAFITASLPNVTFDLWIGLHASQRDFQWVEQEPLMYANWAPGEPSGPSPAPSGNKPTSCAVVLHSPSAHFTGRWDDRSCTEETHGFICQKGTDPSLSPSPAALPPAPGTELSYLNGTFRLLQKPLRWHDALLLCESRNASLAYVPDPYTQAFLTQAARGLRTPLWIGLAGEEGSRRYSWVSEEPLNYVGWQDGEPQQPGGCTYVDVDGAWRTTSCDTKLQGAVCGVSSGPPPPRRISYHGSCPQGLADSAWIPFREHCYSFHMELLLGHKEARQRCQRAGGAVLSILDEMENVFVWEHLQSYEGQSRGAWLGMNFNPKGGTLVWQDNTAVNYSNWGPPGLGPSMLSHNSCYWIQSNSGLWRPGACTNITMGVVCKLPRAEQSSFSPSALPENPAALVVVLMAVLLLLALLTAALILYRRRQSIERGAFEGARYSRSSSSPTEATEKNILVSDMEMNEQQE
# T2: soluble recombinant protein consisting of the three N-terminal domains of uPARAP (CysR, FN-II and CTLD-1) (Homo sapiens, UniProt Q9UBG0)
# T2 construct: A soluble recombinant protein consisting of the three n-terminal domains of uPARAP (CysR, FN-II and CTLD-1)
# T2 sequence (Q9UBG0 41-360 limits assumed): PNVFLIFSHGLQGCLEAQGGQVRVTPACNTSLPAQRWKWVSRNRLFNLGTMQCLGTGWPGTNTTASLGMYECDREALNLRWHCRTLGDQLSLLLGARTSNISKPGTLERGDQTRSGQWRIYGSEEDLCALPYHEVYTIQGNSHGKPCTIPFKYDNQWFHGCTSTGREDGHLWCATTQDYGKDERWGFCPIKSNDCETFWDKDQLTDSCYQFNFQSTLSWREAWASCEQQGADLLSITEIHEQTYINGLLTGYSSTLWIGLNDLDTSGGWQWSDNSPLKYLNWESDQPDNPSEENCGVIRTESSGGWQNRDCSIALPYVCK
# How the values were obtained:
# uPARAP [1] = molecular target: T1, uPARAP; experiment: Antibody reactivity with uPARAP; assay type: binding; details: listed as 2h9
# uPARAP [2] = molecular target: T1, uPARAP; experiment: Western blotting of MG63 cell lysate; assay type: binding; parameters: endogenous in cells; host or cells: MG63 human osteosarcoma cells; details: detergent lysate of uPARAP-positive MG63 human osteosarcoma cells
# Method: For Western blotting, a detergent cell lysate prepared from uPARAP-positive MG63 human osteosarcoma cells was analyzed, using identical concentrations of “2h9 cloned” and “2h9 original” as the primary antibodies. […] No reaction is seen in the absence of primary antibody (negative control).
# [3] = molecular target: T2, soluble recombinant protein consisting of the three N-terminal domains of uPARAP (CysR, FN-II and CTLD-1); details: immobilized 2h9, soluble three-domain protein; Jürgensen et al., 2011; cited from earlier work
molecule,measurement,setting,value
"mAb 2h9: mouse monoclonal IgG1k anti-uPARAP antibody clone 2.h.9: F12, produced by hybridoma cell culture (protein) light: DIQMTQSPASQSASLGESVTITCLASQTIGTWLAWYQQKPGKSPQLLIYAATTLTDGVPSRFSGAGSGTKFSLKISSLQAEDFASYFCQEFFSTPFTFGSGTKLELKRADAAPTVSIFPPSSEQLTSGGASVVCFLNNFYPKDINVKWKIDGGERQNGVLNSWTDQDSKDSTYSMSSTLTLTKDEYERHNSYTCEATHKTSTSPIVKSFNRNEC heavy: QVQLQQPGTELVRPGLSVKLSCKASGYTFTSYWMNWVKQRPGQGLEWIGMIHPSNDEKRINQKFKDKATLTVDKFSSTVYMQVSSPTSEDSAVYYCARGGGDYVGDYALDFWGQGTSVTVSSAKTTPPSVYPLAPGSAAQTNSMVTLGCLVKGYFPEPVTVTWNSGSLSSGVHTFPAVLQSDLYTLSSSVTVPSSTWPSETVTCNVAHPASSTKVDKKIVPRDCGCKPCICTVPEVSSVFIFPPKPKDVLTITLTPKVTCVVVDISKDDPEVQFSWFVDDVEVHTAQTQPREEQFNSTFRSVSELPIMHQDWLNGKEFKCRVNSAAFPAPIEKTISKTKGRPKAPQVYTIPPPKEQMAKDKVSLTCMITDFFPEDITVEWQWNGQPAENYKNTQPIMDTDGSYFIYSKLNVQKSNWEAGNTFTCSVLHEGLHNHHTEKSLSHSPGK",Reactivity with human uPARAP,uPARAP [1],reactive against both human and murine uPARAP; also recorded: reacts with both human and mouse uPARAP
same,Reactivity in Western blotting,uPARAP [2],react specifically with the uPARAP protein
same,Binding in BIAcore setup,[3],binds to immobilized 2h9
